Measured values as given in publication PMC4855144.

Biological target: GFP-N-WASP WH1-GBD
Experiment: co-IP; GFP microbeads precipitate GFP-N-WASP and fragments ΔWA, WH1, WH1-GBD from HEK293T cell extracts; endogenous CRN7 detected with mAb K37-142-1; ratio of co-IP to IP

Chain of GFP-N-WASP WH1-GBD (O00401 whole entry, the tested form may be a part): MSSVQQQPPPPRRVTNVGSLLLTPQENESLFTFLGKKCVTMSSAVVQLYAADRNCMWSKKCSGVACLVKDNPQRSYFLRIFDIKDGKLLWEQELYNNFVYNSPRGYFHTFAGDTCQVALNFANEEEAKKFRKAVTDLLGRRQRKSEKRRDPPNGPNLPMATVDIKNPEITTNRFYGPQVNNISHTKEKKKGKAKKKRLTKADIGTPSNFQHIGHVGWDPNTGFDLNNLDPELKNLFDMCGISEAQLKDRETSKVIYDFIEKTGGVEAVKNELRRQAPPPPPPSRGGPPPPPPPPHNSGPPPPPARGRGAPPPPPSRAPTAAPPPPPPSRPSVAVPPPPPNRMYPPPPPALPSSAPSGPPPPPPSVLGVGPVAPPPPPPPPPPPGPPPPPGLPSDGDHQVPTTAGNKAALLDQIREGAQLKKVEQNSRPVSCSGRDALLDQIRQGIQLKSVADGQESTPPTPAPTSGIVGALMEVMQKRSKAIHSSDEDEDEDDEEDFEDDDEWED

fold binding (co-IP to IP ratio) over WH1 alone: 4 fold
B1: endogenous CRN7 (Coronin7) of HEK293T cells (natural protein)
chain: MNRFRVSKFRHTEARPPRRESWISDIRAGTAPSCRNHIKSSCSLIAFNSDRPGVLGIVPLQGQGEDKRRVAHLGCHSDLVTDLDFSPFDDFLLATGSADRTVKLWRLPGPGQALPSAPGVVLGPEDLPVEVLQFHPTSDGILVSAAGTTVKVWDAAKQQPLTELAAHGDLVQSAVWSRDGALVGTACKDKQLRIFDPRTKPRASQSTQAHENSRDSRLAWMGTWEHLVSTGFNQMREREVKLWDTRFFSSALASLTLDTSLGCLVPLLDPDSGLLVLAGKGERQLYCYEVVPQQPALSPVTQCVLESVLRGAALVPRQALAVMSCEVLRVLQLSDTAIVPIGYHVPRKAVEFHEDLFPDTAGCVPATDPHSWWAGDNQQVQKVSLNPACRPHPSFTSCLVPPAEPLPDTAQPAVMETPVGDADASEGFSSPPSSLTSPSTPSSLGPSLSSTSGIGTSPSLRSLQSLLGPSSKFRHAQGTVLHRDSHITNLKGLNLTTPGESDGFCANKLRVAVPLLSSGGQVAVLELRKPGRLPDTALPTLQNGAAVTDLAWDPFDPHRLAVAGEDARIRLWRVPAEGLEEVLTTPETVLTGHTEKICSLRFHPLAANVLASSSYDLTVRIWDLQAGADRLKLQGHQDQIFSLAWSPDGQQLATVCKDGRVRVYRPRSGPEPLQEGPGPKGGRGARIVWVCDGRCLLVSGFDSQSERQLLLYEAEALAGGPLAVLGLDVAPSTLLPSYDPDTGLVLLTGKGDTRVFLYELLPESPFFLECNSFTSPDPHKGLVLLPKTECDVREVELMRCLRLRQSSLEPVAFRLPRVRKEFFQDDVFPDTAVIWEPVLSAEAWLQGANGQPWLLSLQPPDMSPVSQAPREAPARRAPSSAQYLEEKSDQQKKEELLNAMVAKLGNREDPLPQDSFEGVDEDEWD
